# Measured values reported in patent US7005130.
# Assays:
# [1] = target: HPLC-purified recombinant ORF2 capsid protein of human HEV Sar-55 (baculovirus-expressed) (human HEV, Sar-55 strain (Pakistan)) (UniProt P33426); assay: ELISA, antigen coated at 2 µg/ml, serum 1/200; negative control
# [2] = target: HPLC-purified recombinant ORF2 capsid protein of swine HEV (baculovirus-expressed) (swine HEV); assay: as above
# Chain of UniProt P33426 (P33426 112-607): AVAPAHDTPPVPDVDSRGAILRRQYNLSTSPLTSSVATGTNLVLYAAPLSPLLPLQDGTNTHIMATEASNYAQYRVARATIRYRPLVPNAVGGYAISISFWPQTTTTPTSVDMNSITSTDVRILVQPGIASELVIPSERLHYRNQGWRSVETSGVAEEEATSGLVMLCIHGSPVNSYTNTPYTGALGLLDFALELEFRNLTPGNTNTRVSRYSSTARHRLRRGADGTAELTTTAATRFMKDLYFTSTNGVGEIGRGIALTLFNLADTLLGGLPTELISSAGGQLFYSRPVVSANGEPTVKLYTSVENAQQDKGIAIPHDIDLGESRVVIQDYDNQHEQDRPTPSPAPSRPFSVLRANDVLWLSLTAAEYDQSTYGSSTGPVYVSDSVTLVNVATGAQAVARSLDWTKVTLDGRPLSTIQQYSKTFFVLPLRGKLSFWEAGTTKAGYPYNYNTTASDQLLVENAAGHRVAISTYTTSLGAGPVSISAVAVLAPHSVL
substance,measurement,setting,value
preinoculation control chicken serum (antibody),OD,[1],0.142 OD at 405 nm
same,OD,[2],0.103 OD at 405 nm
